The target of one test is MrgA1-GFP (mouse) (UniProt Q91WW5). The test is described as follows: cell-based or functional assay.
The target in test [1] is MrgC11-GFP (mouse) [GFP: P42212]. Description: cell-based or functional assay.

We go through 27 substances from patent publication US20040121410A1, “Pain signaling molecules” (priority 2002, published 2004).

Bounds are passed on as bounds.

F-(D)M-R-Fa (peptide): in the test with MrgA1-GFP (mouse), the EC50 of calcium mobilization (HEK-MrgA1 cells) turned out to be 1260 nM and the fold decrease in fold change of agonist activity against FMRFa was 3 fold. Further, in test [1], the EC50 of calcium mobilization (HEK-MrgC11 cells) was determined as 11 nM and the fold change of agonist activity against FMRFa is 10 fold.

As for AnthoRF-amide (peptide), the EC50 of calcium mobilization (FLEXstation assay) in test [1] came to 16 nM.

Consider FMRF-OH (peptide), for which, in the test with MrgA1-GFP (mouse), the EC50 of calcium mobilization (FLEXstation assay) came out at 8200 nM and the fold decrease in fold change of agonist activity against FMRFa came to 20 fold. Also, in test [1], the EC50 of calcium mobilization (FLEXstation assay) was found to be 544 nM and the fold change of agonist activity against the amidated peptide was 4 to 5 fold.

Turning to Kiss(112-121) (peptide), the EC50 of calcium mobilization (FLEXstation assay) in test [1] is 50 nM.

As for F-M-R-(D)Fa (peptide), the EC50 of calcium mobilization (HEK-MrgA1 cells) with MrgA1-GFP (mouse) was determined as 643 nM.

With γ1-MSH (peptide), in test [1], the EC50 of calcium mobilization (FLEXstation assay) was 17 nM.

As for (D)F-M-R-Fa (peptide), the EC50 of calcium mobilization (HEK-MrgA1 cells) in the test with MrgA1-GFP (mouse) was determined as 882 nM. The EC50 of calcium mobilization (HEK-MrgC11 cells) in test [1] is 108 nM.

Consider NPAF (peptide), for which, in test [1], the EC50 of calcium mobilization (FLEXstation assay) was 282 nM.

In the case of FMRF-amide (peptide), in the test with MrgA1-GFP (mouse), the EC50 of calcium mobilization (FLEXstation assay) was 420 nM and the EC50 of calcium mobilization (HEK-MrgA1 cells) is 420 nM. Further, in test [1], the EC50 of calcium mobilization (FLEXstation assay) stood at 114 nM and the EC50 of calcium mobilization (HEK-MrgC11 cells) amounted to 114 nM.

As to γ2-MSH (peptide), in test [1], the EC50 of calcium mobilization (FLEXstation assay) worked out at 11 nM and the internalization of the receptor-GFP fusion (confocal microscopy, 1 µM γ2-MSH, 30 min, 37° C.) was > 90 % of cells.

In the case of FLRF-amide (peptide), in the test with MrgA1-GFP (mouse), the EC50 of calcium mobilization (FLEXstation assay) worked out at 402 nM and the internalization of the receptor-GFP fusion (confocal microscopy, 3 µM FLRFa, 30 min, 37° C.) is > 90 % of cells. Besides, the EC50 of calcium mobilization (FLEXstation assay) in test [1] came out at 157 nM.

With RFRP-3 (peptide), the EC50 of calcium mobilization (FLEXstation assay) in test [1] was found to be 113 nM.

NPFF (peptide): the EC50 of calcium mobilization (FLEXstation assay) amounted to 2140 nM in the test with MrgA1-GFP (mouse) and 54 nM in test [1].

For the substance Dynnorphin-14 (peptide), in test [1], the EC50 of calcium mobilization (FLEXstation assay) is 22 nM.

For the substance PQRF-amide (peptide), the EC50 of calcium mobilization (FLEXstation assay) with MrgA1-GFP (mouse) is greater than 10000 nM; in test [1] it was 126 nM.

For BAM-15-amide (peptide), in the test with MrgA1-GFP (mouse), the EC50 of calcium mobilization (FLEXstation assay) turned out to be 8770 nM and the fold change of agonist activity against BAM-15 was determined as 2.7 fold. For the same substance, in test [1], the EC50 of calcium mobilization (FLEXstation assay) was determined as 479 nM and the fold change of agonist activity against BAM-15 was 9 fold.

BAM3200 (peptide): the EC50 of calcium mobilization (FLEXstation assay) with MrgA1-GFP (mouse) is greater than 10000 nM; in test [1] it was 300 nM.

Met-ENK-RFamide (peptide): the EC50 of calcium mobilization (FLEXstation assay) with MrgA1-GFP (mouse) came to 5250 nM; in test [1] it was 133 nM.

On to Kiss(107-121) (peptide), for which, in test [1], the EC50 of calcium mobilization (FLEXstation assay) came out at 102 nM.

Take PrRP-20 (peptide): the EC50 of calcium mobilization (FLEXstation assay) in test [1] was determined as 144 nM.

As for R-F-OH (peptide), in test [1], the EC50 of calcium mobilization (HEK-MrgC11 cells) was 632 nM.

In the case of BAM-22P (peptide), the figures for the EC50 of calcium mobilization (FLEXstation assay) (with MrgA1-GFP (mouse); in test [1]) were 2540 nM and 26 nM, respectively.

Turning to RFRP-1 (peptide), the EC50 of calcium mobilization (FLEXstation assay) in test [1] worked out at 1240 nM.

For the substance R-Fa (peptide), in test [1], the EC50 of calcium mobilization (HEK-MrgC11 cells) amounted to 460 nM.

As for AF-2 (peptide), in test [1], the EC50 of calcium mobilization (FLEXstation assay) was 130 nM.

For the substance BAM-15 (peptide), the EC50 of calcium mobilization (FLEXstation assay) in the test with MrgA1-GFP (mouse) amounted to 23300 nM; in test [1], 53 nM.

Take Met-Enk-RF (peptide): in test [1], the EC50 of calcium mobilization (FLEXstation assay) was 545 nM and the fold change of agonist activity against the amidated peptide is 4 to 5 fold.
